The values below come from publication PMC13061610.

For this test, the target named is Dob3 (Nocardia ninae). Description: SEC; Superdex 200, 20 mM HEPES pH 8.0, 10 mM MgCl2, 50 mM NaCl, 10% glycerol; compared with Bio-Rad gel filtration standards. Background: SEC sorts molecules by how far they enter the pores of the column.

Usually stoichiometry N stands for a count of units in the complex or per binding partner. Dob3 (enzyme): the stoichiometry N is 2.
